Test results published in patent US20090010941A1, “Methods for treating HIV” (priority 2007, published 2009).
Entries after “also recorded” stand apart in the source; their conditions may differ. Where a name gives a salt, the structure may show the parent alone.

How the values were obtained:
[1] = tested on: TRAIL-R1 expression on HIV-1 infected macrophages; type: cell-based, human
[2] = tested on: Bcl-2, Mcl-1, BclXL, BimL, Bmf and cFLIP; assay: Western blotting of pro- and anti-apoptotic proteins in the TRAIL signaling pathway; type: cell-based, human; settings: HIV-1 LAI WT infected macrophages, 2 μM Imatinib 16 hours
Protocol: FIG. 11 provides a set of six protein immunoblot images. […] Protein levels of Bcl-2, Mcl-1, BClxL, BimL, Bmf and cFLIP were determined by Western blotting.
It has been shown that envelope induces over-expression of anti-apoptotic genes, Mcl-1, Bfl-1, cIAP-1, cIAP-2 and XIAP, that function in preventing mitochondrial and caspase-mediated apoptosis by TRAIL (Salvesen and Duckett, 2002; Zhang & Fang, 2005; Han et al., 2006).

[3] = tested on: HIV-1 infected macrophages; assay: Cell Death ELISA for histone-associated DNA fragmentation after Imatinib alone; type: cell-based, human; settings: Imatinib alone 24 or 120 hours, no exogenous TRAIL, five days after infection
Protocol: ELISA for Caspase-3 cleavage (to active form) was obtained from Cell Signaling Technologies (Beverley Mass.). Briefly, 1.4×10^6 macrophages infected with WT and envelope-minus viruses were lysed according to the supplier's protocol, 1 hour after the addition of soluble recombinant Trail (100 ng ml-1). Protein content was determined by Bradford Assay (Bio-Rad, Hercules Calif.) and 220 μg of protein in 200 μl from each culture was assayed. ELISA for supernatant release of histone associated DNA fragments released after induced cell death (Roche, Nutley N.J.) was used to measure macrophage longevity. […] In some experiments an MTT assay (Sigma, St. Louis Mo.) was used to measure cell viability. Fluorescent detection of active caspases was performed by pre-treating cells with red-VAD-FMK and flow cytometry according to the manufacturer's protocol (EMD biosciences). For the measurement of apoptosis by Annexin V and propidium iodide staining in flow cytometry reagents were obtained from BioVision (Mountain View Calif.) and used according to the supplier's protocol.

[4] = in vivo; cited from earlier work
HIV-1 LAI = assay: Virus production with increasing concentrations of TRAIL (reverse transcriptase); type: cell-based, human; settings: 16 hours
Protocol: (§1) FIG. 5. provides three graphs showing that cell viability and virus production in the presence of TRAIL requires an intact envelope gene and is augmented by M-CSF. Macrophage viability and virus production in the presence of increasing concentrations of TRAIL is shown in FIG. 5A and FIG. 5B, respectively. Four days after infection with pseudotyped HIV-1 LAI WT or Δenv viruses, macrophages were incubated with increasing concentrations of soluble TRAIL and cell viability (FIG. 5A) and virus production (FIG. 5B) determined after 16 hours by MTT assay and reverse transcriptase production, respectively. Activated CD8+ T cells suppress viral replication in macrophages via TRAIL (FIG. 5C). Macrophages were infected with pseudotyped wild-type or envelope-minus HIV-1 LAI variants and monitored for virus production in a 24 hour period after incubation with Anti-CD3/CD28 stimulated autologous CD8+ TRAIL+T lymphocytes for 4 hours. Macrophages were pre-treated for 16 hours with M-CSF neutralizing antibody or isotype control and T cells were preincubated with recombinant TRAIL-R1 or control receptor (5 μg·ml-1) for 1 hour.
The differential sensitivity of wild type and envelope minus HIV-1 infected macrophages to TRAIL-mediated cell killing correlated with the concentration of TRAIL required to impact cell viability and virus production. […]

[5] = tested on: HIV-1 infected macrophages; assay: TRAIL-mediated apoptosis by ELISA for active (cleaved) Caspase 3; type: cell-based, human; settings: HIV-1 WT infected macrophages, Day 2
Protocol: (§2) Macrophages were infected with pseudotyped wild-type or envelope-minus HIV-1 LAI variants and monitored for virus production (FIG. 4A). At 8 days post infection, cultures were incubated with soluble TRAIL (100 ng·ml-1) and apoptosis determined by ELISA for active (cleaved) Caspase 3. […] Macrophage cultures, equally infected with pseudotyped HIV-1 LAI WT or Δenv viruses or mock infected, were examined by phase contrast microscopy after incubation with 100 ng/ml TRAIL (1 hour treatment with TRAIL followed by 5 hours incubation after removal of TRAIL). […] Eight days after infection with pseudotyped HIV-1 LAI WT or Δenv viruses, macrophages were incubated with soluble TRAIL (100 ng·ml-1) and percentage of viable cells remaining extrapolated from the level of cell death determined from ELISA. Macrophage half-life was calculated from the linear regression slope and expressed in hours+/−SD.
Relationship of apoptosis by TRAIL, M-CSF release and TRAIL-R1 expression in macrophages infected with pseudotyped wild type or envelope minus HIV-1 HSA viruses. In FIG. 6A, M-CSF release as a function of time was determined by ELISA. In FIG. 6B, TRAIL-R1 expression as a function of time was measured by flow cytometry. In FIG. 6C, TRAIL-mediated apoptosis in macrophages was analyzed by ELISA for active (cleaved) Caspase 3 in parallel cultures during the infection (Error bars, SD). […]

[6] = tested on: HIV-1 LAI infected macrophages; assay: Macrophage viability with increasing concentrations of TRAIL (MTT assay); type: cell-based, human; settings: 16 hours
Protocol: as §1, with “hour. […]” for “hour.”
ELISA for Caspase-3 cleavage (to active form) was obtained from Cell Signaling Technologies (Beverley Mass.). […] Protein content was determined by Bradford Assay (Bio-Rad, Hercules Calif.) and 220 μg of protein in 200 μl from each culture was assayed. […]

[7] = tested on: HIV-1 infected macrophages; assay: Macrophage half-life in the presence of TRAIL (cell death ELISA); type: cell-based, human; settings: soluble TRAIL 100 ng·ml-1
Protocol: as §2
Macrophages are a long-lived reservoir of HIV in vivo and a source of viral rebound (reviewed in Stevenson, 2003). The evasion of apoptosis in other human viral infections contributes to viral persistence and enables the infected cell to survive in the face of a hostile microenvironment (Raftery et al., 2001; Secchiero et al., 2001; Tollefson et al. 1998; Tollefson et al. 2001). Therefore we determined the half-life of HIV-1 infected macrophages in the presence of a concentration of TRAIL capable of inducing apoptosis. […] Thus resistance to TRAIL can potentially provide a significant advantage to macrophages infected by HIV-1.
ELISA for Caspase-3 cleavage (to active form) was obtained from Cell Signaling Technologies (Beverley Mass.). Briefly, 1.4×10^6 macrophages infected with WT and envelope-minus viruses were lysed according to the supplier's protocol, 1 hour after the addition of soluble recombinant Trail (100 ng ml-1). Protein content was determined by Bradford Assay (Bio-Rad, Hercules Calif.) and 220 μg of protein in 200 μl from each culture was assayed. […]

[8] = tested on: HIV-1 infected macrophages; assay: Apoptosis by Annexin V and propidium iodide staining and flow cytometry; type: cell-based, human; settings: TRAIL exposure without Imatinib treatment
[9] = macrophages infected with pseudotyped HIV-1 LAI Δenv
[10] = macrophages infected with pseudotyped wild type HIV-1 LAI

Molecule: Cc1ccc(NC(=O)c2ccc(CN3CCN(C)CC3)cc2)cc1Nc1nccc(-c2cccnc2)n1 [Imatinib, Imatinib mesylate]
- TRAIL-R1 expression on uninfected macrophages ([1]; uninfected macrophages, also those in cultures of infected cells, Imatinib 16 hours): did not promote TRAIL-R1 expression
- expression of pro- and anti-apoptotic proteins [2]: cause a shift in the expression of the proteins in favor of cellular apoptosis
- apoptosis (histone-associated DNA fragmentation) of wild-type-infected macrophages [3]: results in apoptosis of wild-type-infected macrophages; also recorded: removed the requirement for exogenous TRAIL
- bioavailability to the brain [4]: poor bioavailability to the brain

B1: TRAIL: soluble human recombinant TRAIL (TNF-related apoptosis-inducing ligand) obtained from Axxora LLC (protein, UniProt P50591 39-281, looked up)
extracellular domain: TNELKQMQDKYSKSGIACFLKEDDSYWDPNDEESMNSPCWQVKWQLRQLVRKMILRTSEETISTVQEKQQNISPLVRERGPQRVAAHITGTRGRSNTLSSPNSKNEKALGRKINSWESSRSGHSFLSNLHLRNGELVIHEKGFYYIYSQTYFRFQEEIKENTKNDKQMVQYIYKYTSYPDPILLMKSARNSCWSKDAEYGLYSIYQGGIFELKENDRIFVSVTNEHLIDMDHEASFFGAFLVG
modifications: extracellular domain
notes: soluble human recombinant TRAIL (TNF-related apoptosis-inducing ligand) obtained from Axxora LLC
- TRAIL concentration effecting ~50% reduction in virus output (HIV-1 LAI; [9]): 3 ng/mL
- TRAIL concentration required for ~50% reduction in virus output (HIV-1 LAI; [10]): > 50 ng/mL
- TRAIL-induced active caspase 3 elevation [5]: 3 fold
- TRAIL concentration effecting ~50% reduction in cell viability [6, 9]: 3 ng/mL
- TRAIL concentration required for ~50% reduction in viability [6, 10]: > 30 ng/mL
- macrophage half-life in the presence of TRAIL ([7]; HIV-1 Δenv infected macrophages): around 36 hours
- macrophage half-life in the presence of TRAIL ([7]; mock infected cultures): 81 h
- macrophage half-life in the presence of TRAIL ([7]; wild type infected cultures): 110 h
- apoptosis of infected macrophages [8]: 3.9%

B2: exogenous M-CSF: recombinant macrophage colony stimulating factor added to macrophage cultures (protein, UniProt P09603 33-554, looked up)
Macrophage colony-stimulating …: EEVSEYCSHMIGSGHLQSLQRLIDSQMETSCQITFEFVDQEQLKDPVCYLKKAFLLVQDIMEDTMRFRDNTPNAIAIVQLQELSLRLKSCFTKDYEEHDKACVRTFYETPLQLLEKVKNVFNETKNLLDKDWNIFSKNCNNSFAECSSQDVVTKPDCNCLYPKAIPSSDPASVSPHQPLAPSMAPVAGLTWEDSEGTEGSSLLPGEQPLHTVDPGSAKQRPPRSTCQSFEPPETPVVKDSTIGGSPQPRPSVGAFNPGMEDILDSAMGTNWVPEEASGEASEIPVPQGTELSPSRPGGGSMQTEPARPSNFLSASSPLPASAKGQQPADVTGTALPRVGPVRPTGQDWNHTPQKTDHPSALLRDPPEPGSPRISSLRPQGLSNPSTLSAQPQLSRSHSSGSVLPLGELEGRRSTRDRRSPAEPEGGPASEGAARPLPRFNSVPLTDTGHERQSEGSFSPQLQESVFHLLVPSVILVLLAVGGLLFYRWRRRSHQEPQRADSPLEQPEGSPLTQDDRQVELPV
- TRAIL-R1 expression ([1]; macrophages infected with an envelope defective virus, exogenous M-CSF 16 hours): down-regulated TRAIL-R1
